Laboratory results: patent US10808024B2, “Antibodies against immunocomplexes comprising cyanobacterial cyclic peptide hepatotoxins” (priority 2015, dated 2020)
Numbering of substitutions follows the chain as printed. Entries after “also recorded” stand apart in the source; their conditions may differ.

Assays:
Type in all cases: binding
[1] = tested on: immunocomplex of CCPH variant and biotinylated anti-Adda mAb; assay: Quantitative lateral flow test with streptavidin up-converting nanoparticles
[2] = tested on: anti-Adda mAb-MC-LR immunocomplex
[3] = tested on: immunocomplex of CCPH variant and biotinylated anti-Adda mAb; assay: Single-step non-competitive TR-IFMA with SA51D1 scFv-AP, toxin standards
[4] = tested on: immunocomplexes of CCPH variants and anti-Adda mAb; assay: Screening and cross-reactivity studies of anti-IC scFv-AP binders, specificity class
[5] = tested on: immunocomplexes of MC-XZ and Nod-R with anti-Adda mAb; assay: Cross-reactivity profile of anti-IC binders by single-step non-competitive assay (FIG. 5); details: toxin 0.1 to 60 μg/L
[6] = tested on: CCPH in unknown water samples, immunocomplex with anti-Adda mAb; assay: Anti-IC immunoassay profiling of blinded water samples (Abraxis proficiency testing); details: sample MC-TK8, MC-LR + MC-RR + MC-YR, 4 + 1 + 1 μg/l

## C/C=C1/C(=O)N[C@@H](C(=O)O)[C@H](C)C(=O)N[C@@H](CCCNC(=N)N)C(=O)N[C@@H](/C=C/C(C)=C/[C@H](C)[C@H](Cc2ccccc2)OC)[C@H](C)C(=O)N[C@@H](C(=O)O)CCC(=O)N1C [Nodularin, reference compound]
[1]
  Signal-to-background ratio: 38

## MC-LR
[2]
  Sensitivity (blank+3SD): below 0.3 μg/L

## MC-LA
[3]
  Sensitivity: 0.05 µg/L

B1: SA56B8: variant-specific anti-IC antibody, MC-LR (antibody, V domains shown)
VH: EVQLLESGGGLVQPGGSLRLSCAASGFTFSDYWMHWVRQAPGKGLEWVSYINPYGGYTDYADSVKGRFTISRDNSKNTLYLQMNSLRAEDTAVYYCARYVRRHFDYWGQGTLVTVSS
VL: EIVLTQSPGTLSLSPGERATLSCRASQSVSSSYLAWYQQKPGQAPRLLIYGASSRATGVPDRFSGSGSGTDFTLTISRLEPEDFAVYYCQQSSSYPWTFGQGTKVEIKRT
modifications: Clone SA56B8; DOMAIN (31)..(35) CDR1; DOMAIN (50)..(66) CDR2; DOMAIN (99)..(106) CDR3; DOMAIN (24)..(35) CDR1; DOMAIN (51)..(57) CDR2; DOMAIN (90)..(98) CDR3
[4]
  Specificity of anti-IC antibody (CCPH immunocomplexes recognized): recognize immunocomplexes comprising MC-LR; also recorded: MC-LR specific
[5]; MC-LW
  Signal (%) with MC-LW: below 20%
[5]
  Specificity (cross-reactive pattern): MC-LR and MC-dmLR specific

B2: SA41B5: variant-specific anti-IC antibody, MC-RR (antibody, V domains shown)
VH: EVQLLESGGGLVQPGGSLRLSCAASGFTFSSDVMHWVRQAPGKGLEWVSVINPYDGSTYYADSVKGRFTISRDNSKNTLYLQMNSLRAEDTAVYYCARAVAGQGGYFDYWGQGTLVTVSS
VL: B1 VL with Y33N, Y95L
modifications: Clone SA41B5; DOMAIN (31)..(35) CDR1; DOMAIN (50)..(66) CDR2; DOMAIN (99)..(109) CDR3; DOMAIN (24)..(35) CDR1; DOMAIN (51)..(57) CDR2; DOMAIN (90)..(98) CDR3
[4]
  Specificity of anti-IC antibody (CCPH immunocomplexes recognized): recognize immunocomplexes comprising MC-RR; also recorded: MC-RR specific
[6]
  Specific anti-IC assay result: positive

B3: SA32C11: variant-specific anti-IC antibody, Nod-R (antibody, V domains shown)
VH: EVQLLESGGGLVQPGGSLRLSCAASGFTFSDYWMHWVRQAPGKGLEWVSEINTSNGNTYYADSVKGRFTISRDNSKNTLYLQMNSLRAEDTAVYYCARESWWPYSFDYWGQGTLVTVSS
VL: B1 VL with Y33N, Y95L
modifications: Clone SA32C11; DOMAIN (31)..(35) CDR1; DOMAIN (50)..(66) CDR2; DOMAIN (99)..(108) CDR3; DOMAIN (24)..(35) CDR1; DOMAIN (51)..(57) CDR2; DOMAIN (90)..(98) CDR3
[4]
  Specificity of anti-IC antibody (CCPH immunocomplexes recognized): recognize immunocomplexes comprising Nod-R; also recorded: nodularin-R specific
[1]; each CCPH at 1 μg/l
  Recognition of nine CCPH variants in lateral flow test: Only Nodularin was recognized
[6]; listed as Nod5
  Specific anti-IC assay result: not
[5]
  Specificity (cross-reactive pattern): specificity only towards Nod-R
